Here are results for 1 molecule from patent US9101618B2, “Method for treating and/or preventing neurodegenerative disease by adiponectin receptor agonist” (TOKYO METROPOLITAN INSTITUTE OF MEDICAL SCIENCE, priority 2011, dated 2015).

What all share (assay type): cell-based, rat
For one data set, the system named is GSK-3β (beta). Nature of the data set: Addition of p38 MAPK inhibitor and AMPK inhibitor: phospho-GSK-3β western blotting. The note with it: 1 μg/mL adiponectin 30 min, no inhibitor. As to the method: The aforementioned B103 neuroblastoma cells (α (alpha)S) were inoculated on the 6-well plate and cultured to a state of about 80-90% confluence. After washing with PBS, the aforementioned cells were further cultured for 10 min in an inhibition test medium prepared by adding either 5 μM p38 MAPK inhibitor (SB203580, Promega) or 5 μM AMPK inhibitor (Compound C, Calbiochem) to a serum-free medium. As a control, DMSO was added to a serum-free medium instead of the aforementioned inhibitors. Later, either recombinant human adiponectin (1 μg/mL, trimer, PROSPEC) or PBS was added so as to culture the cells for 30 min. The cells collected were then lysed with the aforementioned cell lysis solution. Supernatants were collected after performing centrifugation at 100,000×g for 30 min, and then subjected to western blotting. Here, western blotting was performed in accordance with the procedures described in example 1.
When performing western blotting to evaluate signal transduction pathways, the anti-phospho-GSK-3β (beta) (Ser9) antibody (D85E12, Cell Signaling Technology), the anti-GSK-3β (beta) antibody (BD Biosciences) and the anti-β (beta)-actin mouse monoclonal antibody (C-15, Sigma-Aldrich Japan Inc.) were used as primary antibodies after being appropriately diluted. Further, the HRP labeled anti-mouse IgG antibody (DAKO) was used as a secondary antibody after being appropriately diluted.
For orientation: Immunoblotting shows a protein as a band on a membrane.

The subject of the next data set is tau. Nature of the data set: Adiponectin addition (3): tau phosphorylation (western blotting). The note with it: 1 μg/mL, 0, 1 and 2 hour(s), B103 neuroblastoma cells (αS). As for the experimental part:
The B103 neuroblastoma cells (α (alpha)S) and the B103 neuroblastoma cells (vector) were inoculated on a 5 cm dish and cultured to a state of about 80-90% confluence. Later, the aforementioned cells were washed with PBS, and then cultured in a serum-free medium for four hours. After washing with PBS, the cells were then cultured in a test medium (adiponectin-added group) prepared by adding recombinant human adiponectin (1_μg/mL, trimer, PROSPEC) to a serum-free medium. As a control, there was used a control medium (adiponectin non-added group) prepared by adding thereto PBS instead of recombinant human adiponectin. A culture time was 0, 10 and 30 min when evaluating signal transduction, 0, 1 and 2 hour(s) when evaluating tau phosphorylation. The cells collected were lysed with a cell lysis solution (1% TritonX-100, 1% Nonidet P-40, 50 mM HEPES, 150 mM NaCl, 10% glycerol, 1.5 mM MgCl2, 1 mM EGTA, 100_mM sodium fluoride, a protease inhibitor (NACALAI TESQUE, INC.)). Supernatants were collected after performing centrifugation at 100,000×g for 30 min, and were used as surfactant soluble fractions when performing western blotting. Here, western blotting was performed in accordance with the procedures described in example 1. […]

In data set [1] the test system is B103 neuroblastoma cells (α (alpha)S). Nature of the data set: Immunoprecipitation with anti-α-synuclein antibody, detection of phosphorylated tau (Ser 202). To be noted: 1 μg/mL, 24 hours, NP40 soluble fraction. As to the method:
Immunoprecipitation was performed by standard procedures known to those skilled in the art. Briefly, the B103 neuroblastoma cells (α (alpha)S) were inoculated on a 10 cm dish, and were cultured to a state of about 80-90% confluence. The cells were then washed with PBS, followed by being cultured in a test medium (adiponectin-added group) prepared by adding recombinant human adiponectin (1 μg/mL, trimer, PROSPEC) to a serum-free medium. As a control, there was used a control medium (adiponectin non-added group) prepared by adding thereto PBS instead of recombinant human adiponectin. After being cultured for 24 hours, the cells were then lysed with a NP40 lysis solution (1% IGEPAL CA630 (Sigma-Aldrich Japan Inc), 150 mM NaCl, 50 mM Tris-HCl (pH 8.0), a protease inhibitor (NACALAI TESQUE, INC.)). Supernatants were collected after performing centrifugation at 100,000×g for 30 min. The supernatants thus collected were used as NP40 soluble fractions when performing immunoprecipitation. Immunoprecipitation was performed using Immunoprecipitation Starter Pack (GE Healthcare Japan Corporation) in accordance with a manual provided by the manufacturer and vender. […]

In the next data set the test system is B103 neuroblastoma cells. Nature of the data set: Cytotoxicity due to the addition of adiponectin. To be noted: 1 μg/mL. As to the method:
The B103 neuroblastoma cells (α (alpha)S) and the B103 neuroblastoma cells (vector) were prepared and cultured in accordance with the procedures described in example 3. The B103 neuroblastoma cells (α (alpha)S) and the B103 neuroblastoma cells (vector) were inoculated on the 6-well plate and cultured to a state of about 80-90% confluence. After washing with PBS, the aforementioned cells were further cultured for 24 hours in a test medium prepared by adding recombinant human adiponectin (1 μg/mL, trimer, PROSPEC) to a serum-free medium. As a control, there was used a control medium prepared by adding thereto PBS instead of recombinant human adiponectin. After culturing, there were prepared the TBS soluble fraction, the SDS soluble fraction and the formic acid soluble fraction in accordance with the procedures described in example 1. Further, western blotting was performed in accordance with the procedures described in example 1. In order to evaluate α (alpha)-synuclein aggregation, an anti-α (alpha)-synuclein mouse monoclonal antibody (syn-1, Nippon Becton Dickinson Company, Ltd) was used as a primary antibody when performing western blotting, the anti-α (alpha)-synuclein mouse monoclonal antibody being diluted appropriately before use. Additionally, an HRP labeled anti-mouse IgG antibody (DAKO) was used as a secondary antibody, the HRP labeled anti-mouse IgG antibody being diluted appropriately before use.
The B103 neuroblastoma cells (α (alpha)S) and the B103 neuroblastoma cells (vector) were inoculated on a 5 cm dish and cultured to a state of about 80-90% confluence. Later, the aforementioned cells were washed with PBS, and then cultured in a serum-free medium for four hours. After washing with PBS, the cells were then cultured in a test medium (adiponectin-added group) prepared by adding recombinant human adiponectin (1_μg/mL, trimer, PROSPEC) to a serum-free medium. As a control, there was used a control medium (adiponectin non-added group) prepared by adding thereto PBS instead of recombinant human adiponectin. […]

B1: adiponectin: recombinant human adiponectin (trimer, PROSPEC) added to serum-free medium at 1 μg/mL (protein, UniProt Q15848 19-244, looked up)
Adiponectin: ETTTQGPGVLLPLPKGACTGWMAGIPGHPGHNGAPGRDGRDGTPGEKGEKGDPGLIGPKGDIGETGVPGAEGPRGFPGIQGRKGEPGEGAYVYRSAFSVGLETYVTIPNMPIRFTKIFYNQQNHYDGSTGKFHCNIPGLYYFAYHITVYMKDVKVSLFKKDKAMLFTYDQYQENNVDQASGSVLLHLEVGDQVWLQVYGEGERNGLYADNDNDSTFTGFLLYHDTN
Take B1: in the data set on GSK-3β (beta), the “phosphorylated GSK-3β in surfactant soluble fraction” value was “detected”. For the same molecule, the “amount of phosphorylated tau (Ser 202, Ser 396)” value in the data set on tau is on record as “decreased”. Also, the “coprecipitation of phosphorylated tau with α-synuclein” value in data set [1] is “did not coprecipitate”. The cytotoxicity result with B103 neuroblastoma cells (24 hours (α-synuclein aggregation experiment)), with B103 neuroblastoma cells (signal transduction experiment) and in the data set with B103 neuroblastoma cells (tau phosphorylation experiment) was “not particularly observed” each time.
